Laboratory results as given in patent US20090203610A1, “METHODS OF TREATING OBESITY OR DIABETES USING NT-4/5” (RINAT NEUROSCIENCE CORPORATION, priority 2004, published 2009).

Experiments:
human TrkB = biological target: T1, human TrkB (Homo sapiens, UniProt Q16620); assay: Receptor tyrosine phosphorylation (KIRA) in TrkB expressing cell line; type: cell-based
T1 construct: expressed in transfected cells
Source text: Method of making pegylated NT-4/5 (S50C): The native form of NT-4/5 used in this study was produced according to the method described in U.S. Pat. No. 6,184,360. A site-directed pegylated NT-4/5 was also produced. The structure of NT-4/5 in complex with domain 5 of TrkB was examined to find amino acid side chains that would be surface available and unlikely to interfere with natural disulfide bonds and also unlikely to interfere in either the interactions between the monomer subunits of NT-4/5 or the TrkB domain 5 to create a PEG attaching site. […] […] Mutant proteins were expressed in E. coli, solubilized, extracted, purified and refolded as the native NT-4/5. To pegylate the refolded NT4-S50C, NT4-Q105C, and NT-4-E67C, first a mild reduction with 0.1 mM DTT (dithiothreitol) was performed. Excess DTT was removed by dialysis against 50 mM sodium acetate at pH 6, then a 5 molar excess of mPEG-maleimide (M. W. of 10,000 Da, SunBio, Inc., South Korea) was incubated with the protein at 37° C. for several days with gentle agitation. Pegylated protein, non-pegylated protein and unreacted PEG were separated via ion exchange or size exclusion chromatography.
(§1) Assays of TrkB specific activation by pegylated NT-4/5: Stable cell lines expressing human TrkA, TrkB or TrkC were used to determine the functional activity, i.e. receptor phosphorylation, of NT-4/5 and pegylated NT-4/5 as previously described (Sadick et al. Experimental Cell Research 234: 354-361, 1997).
as §1, with “and different forms of” for “and”

[1] = tested on: NONcNZO-10 polygenic obese mice; assay: Pegylated NT-4/5 cysteine mutant on body weight, food intake, glucose, triglyceride in NONcNZO-10 mice (Example 6); type: in vivo; settings: 2 mg/kg/week injection
db/db mice [2] = assay: Non-fasting serum glucose after single injection in db/db mice (Example 7); type: in vivo; settings: after 4 days; single subcutaneous injection, 5 mg/kg
Description: (§2) Test animals: 30 female db/db mice at 7 weeks of age weighing in the range of 27-34 g were used in this study.
(§3) Administration of NT-4/5 and pegylated NT-4/5: Wild type NT-4/5 was obtained from Genentech Inc. The mice were divided into 5 groups of equivalent body weight distribution (6 mice per group). Each group received on the first day (day 1) of the study one and the only dose of either vehicle, 5 mg/kg of NT-4/5 produced as described above, 5 mg/kg of 2PEG-NT4-G1S, or 5 mg/kg of 1PEG-NT4-G1S. 2PEG-NT4-G1S represents one PEG molecule was conjugated to each NT-4/5 monomer in a NT-4/5 dimer, and 1PEG-NT4-G1S represents one PEG molecule was conjugated to only one monomer of the NT-4/5 dimer. 2PEG-NT4-G1S and 1PEG-NT4-G1S were separated by ion exchange. Four days before starting the treatment (day −4), blood samples were collected from the mice as described previously for the determination of baseline levels of serum glucose. On day 4 after the treatment started, blood samples were collected again to determine serum glucose level. Body weight and food intake were monitored 5 days a week through out the entire study.

db/db mice [3] = assay: Daily food intake after single injection of NT-4/5 or pegylated NT-4/5 in db/db mice (Example 7, Table 22); type: in vivo; settings: for Daily food intake: single s.c. injection 5 mg/kg, db/db mice, mean
Description: as §2, §3

[4] = Serum half life after single subcutaneous dose in db/db mice (Example 7); type: in vivo
Source text: In addition, pegylated NT-4/5 has extended half life in vivo.

human TrkC = biological target: T2, human TrkC (Homo sapiens, UniProt Q16288); assay: Receptor tyrosine phosphorylation in trkC expressing cell line; type: cell-based
T2 construct: expressed in transfected cells
Source text: as §1
as §1, with “and different forms of” for “and”

db/db mice [5] = assay: Body weight after single injection of NT-4/5 or pegylated NT-4/5 in db/db mice (Example 7, Table 21); type: in vivo; settings: for Body weight expressed in percentage of baseline value: single 5 mg/kg dose on day 1
Description: as §2, §3

human TrkA = biological target: T3, human TrkA (Homo sapiens, UniProt P04629); assay: Receptor tyrosine phosphorylation in trkA expressing cell line; type: cell-based
T3 construct: expressed in transfected cells
Source text: as §1
as §1, with “and different forms of” for “and”

[6] = single subcutaneous injection, 5 mg/kg, significantly

T1 sequence (Q16620 32-822): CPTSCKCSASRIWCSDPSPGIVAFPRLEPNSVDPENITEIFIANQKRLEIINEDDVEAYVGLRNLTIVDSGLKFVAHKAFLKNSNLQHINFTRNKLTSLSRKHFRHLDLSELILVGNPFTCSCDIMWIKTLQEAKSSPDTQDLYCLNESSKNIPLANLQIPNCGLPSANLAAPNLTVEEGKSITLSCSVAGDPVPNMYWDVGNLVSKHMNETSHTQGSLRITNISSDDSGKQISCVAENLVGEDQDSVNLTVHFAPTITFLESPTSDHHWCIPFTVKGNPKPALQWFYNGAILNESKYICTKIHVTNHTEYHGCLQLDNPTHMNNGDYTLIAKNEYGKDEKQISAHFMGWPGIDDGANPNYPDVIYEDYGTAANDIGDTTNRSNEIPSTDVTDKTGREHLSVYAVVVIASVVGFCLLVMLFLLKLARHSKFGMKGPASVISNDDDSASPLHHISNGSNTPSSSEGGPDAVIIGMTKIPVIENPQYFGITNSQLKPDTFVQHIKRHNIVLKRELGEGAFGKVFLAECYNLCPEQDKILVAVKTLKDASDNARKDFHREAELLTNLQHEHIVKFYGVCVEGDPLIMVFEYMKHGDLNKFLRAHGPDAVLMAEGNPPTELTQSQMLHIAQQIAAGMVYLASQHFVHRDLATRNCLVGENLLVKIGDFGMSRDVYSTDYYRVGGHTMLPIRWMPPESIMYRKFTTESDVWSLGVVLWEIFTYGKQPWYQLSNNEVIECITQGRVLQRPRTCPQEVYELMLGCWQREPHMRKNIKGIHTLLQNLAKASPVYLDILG
T2 sequence (Q16288 32-839): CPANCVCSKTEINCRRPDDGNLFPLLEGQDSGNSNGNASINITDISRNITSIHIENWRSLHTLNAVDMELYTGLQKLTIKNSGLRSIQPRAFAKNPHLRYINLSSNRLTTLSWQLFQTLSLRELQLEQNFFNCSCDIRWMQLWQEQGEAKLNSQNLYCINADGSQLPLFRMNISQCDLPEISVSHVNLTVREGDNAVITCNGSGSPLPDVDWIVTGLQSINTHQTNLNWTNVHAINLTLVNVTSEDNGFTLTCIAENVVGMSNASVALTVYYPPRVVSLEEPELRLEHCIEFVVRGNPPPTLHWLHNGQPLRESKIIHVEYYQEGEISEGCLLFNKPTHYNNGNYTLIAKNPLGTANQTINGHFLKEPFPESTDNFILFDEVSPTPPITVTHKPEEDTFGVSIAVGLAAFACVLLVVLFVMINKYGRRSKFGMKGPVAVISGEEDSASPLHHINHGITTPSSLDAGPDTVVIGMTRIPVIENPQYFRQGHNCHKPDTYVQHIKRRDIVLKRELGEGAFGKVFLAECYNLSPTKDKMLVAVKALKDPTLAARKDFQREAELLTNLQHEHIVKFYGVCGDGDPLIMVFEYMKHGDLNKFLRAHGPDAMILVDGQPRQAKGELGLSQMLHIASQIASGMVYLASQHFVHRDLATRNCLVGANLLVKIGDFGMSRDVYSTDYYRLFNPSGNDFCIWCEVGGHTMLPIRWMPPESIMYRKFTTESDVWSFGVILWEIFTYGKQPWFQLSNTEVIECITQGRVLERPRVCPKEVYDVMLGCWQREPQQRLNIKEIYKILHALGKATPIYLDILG
T3 sequence (P04629 33-796): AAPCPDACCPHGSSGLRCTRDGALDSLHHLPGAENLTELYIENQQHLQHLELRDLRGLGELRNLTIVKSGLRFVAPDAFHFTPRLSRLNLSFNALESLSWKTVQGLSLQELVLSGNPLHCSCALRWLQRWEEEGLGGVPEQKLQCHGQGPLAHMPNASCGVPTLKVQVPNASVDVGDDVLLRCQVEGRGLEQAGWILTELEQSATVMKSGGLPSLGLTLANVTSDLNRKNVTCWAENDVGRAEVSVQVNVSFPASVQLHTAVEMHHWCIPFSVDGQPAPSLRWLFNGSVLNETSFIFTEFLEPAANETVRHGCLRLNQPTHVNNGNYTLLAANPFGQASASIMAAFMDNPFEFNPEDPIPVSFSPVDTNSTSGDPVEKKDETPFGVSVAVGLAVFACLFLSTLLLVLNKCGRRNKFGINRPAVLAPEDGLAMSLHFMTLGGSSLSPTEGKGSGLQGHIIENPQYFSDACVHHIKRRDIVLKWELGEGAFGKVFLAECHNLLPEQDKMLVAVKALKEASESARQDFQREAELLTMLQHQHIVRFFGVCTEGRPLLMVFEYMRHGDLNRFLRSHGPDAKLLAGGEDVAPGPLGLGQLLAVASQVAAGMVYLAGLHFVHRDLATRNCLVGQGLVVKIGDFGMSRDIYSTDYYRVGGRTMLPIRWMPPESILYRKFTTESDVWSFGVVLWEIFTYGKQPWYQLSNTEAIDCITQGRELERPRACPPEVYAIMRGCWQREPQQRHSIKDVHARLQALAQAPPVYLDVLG

Molecule | receptor tyrosine phosphorylation of TrkB-expressing cell line (human TrkB) | in vivo activity (body weight, food intake, glucose or triglyceride) [1] | non-fasting serum glucose levels (db/db mice [2]) | Daily food intake (db/db mice [3]; Day 1) [g/day] | Daily food intake (db/db mice [3]; Day 2) [g/day] | Daily food intake (db/db mice [3]; Day 3) [g/day] | Daily food intake (db/db mice [3]; Day 4) [g/day] | food intake (db/db mice [3]; [6]) | absolute protein levels relative to native NT-4/5 ([4]; at any given time point) | serum half life ([4]; single subcutaneous dose of 4 mg/kg in db/db mice, estimated) [h] | receptor tyrosine phosphorylation of trkC-expressing cell line (human TrkC) | Body weight expressed in percentage of baseline value (db/db mice [5]; Day 1) | Body weight expressed in percentage of baseline value (db/db mice [5]; Day 2) | Body weight expressed in percentage of baseline value (db/db mice [5]; Day 3) | Body weight expressed in percentage of baseline value (db/db mice [5]; Day 4) | body weight growth (db/db mice [5]; [6]) | receptor tyrosine phosphorylation of trkA-expressing cell line (human TrkA)
Pegylated mutant NT-4/5 (Q105C): NT-4/5 with residue 105 changed to cysteine, pegylated with mPEG-maleimide (10,000 Da) (conjugate) GVSETAPASRRGELAVCDAVSGWVTDRRTAVDLRGREVEVLGEVPAAGGSPLRQYFFETRCKADNAEEGGPGAGGGGCRGVDRRHWVSECKAKQSYVRALTADACGRVGWRWIRIDTACVCTLLSRTGRA | preserved TrkB receptor agonist activity | inactive in vivo | – | – | – | – | – | – | – | – | – | – | – | – | – | – | –
2PEG-NT4-G1S: NT4-G1S dimer with one 20 kDa PEG molecule conjugated to each NT-4/5 monomer (conjugate) SVSETAPASRRGELAVCDAVSGWVTDRRTAVDLRGREVEVLGEVPAAGGSPLRQYFFETRCKADNAEEGGPGAGGGGCRGVDRRHWVSECKAKQSYVRALTADAQGRVGWRWIRIDTACVCTLLSRTGRA | increased receptor tyrosine phosphorylation | – | showed a tendency to reduce | 6.7 | 5.3 | 5.8 | 6.2 | reduced | several orders of magnitude higher | 12.7 to 16 | did not increase receptor tyrosine phosphorylation | 100.0 % of baseline | 97.3 % of baseline | 98.4 % of baseline | 100.1 % of baseline | reduced the body weight growth | did not increase receptor tyrosine phosphorylation
